In US20180296701A1 one finds decrease of intracellular introduction efficiency (GFP expression, flow cytometry) of wild-type Ad (naked dE1/GFP) in MIA PaCa-2 cells pre-treated with knob protein data, which are given here for one substance.

The assay deals with CAR (receptor of the wild-type Ad) (human) (UniProt P78310). Put plainly: cell-based or functional assay.
UniProt P78310, sequence (P78310 20-365): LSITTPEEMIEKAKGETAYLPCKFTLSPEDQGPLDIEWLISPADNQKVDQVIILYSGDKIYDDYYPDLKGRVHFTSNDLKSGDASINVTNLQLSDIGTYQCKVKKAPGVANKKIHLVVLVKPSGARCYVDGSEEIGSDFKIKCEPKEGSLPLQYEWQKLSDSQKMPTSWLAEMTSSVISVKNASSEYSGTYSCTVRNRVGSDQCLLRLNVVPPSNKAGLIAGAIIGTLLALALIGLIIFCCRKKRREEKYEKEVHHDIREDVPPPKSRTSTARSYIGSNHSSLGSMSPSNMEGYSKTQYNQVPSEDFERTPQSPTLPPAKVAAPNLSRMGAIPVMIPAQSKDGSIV

Regarding Ad knob protein, the decrease of intracellular introduction efficiency (GFP expression, flow cytometry) of wild-type Ad (naked dE1/GFP) in MIA PaCa-2 cells pre-treated with knob protein at 0.2 ug/mL turned out to be 76% and the decrease of intracellular introduction efficiency (GFP expression, flow cytometry) of wild-type Ad (naked dE1/GFP) in MIA PaCa-2 cells pre-treated with knob protein at 1 ug/mL is 92%.
